From patent US20170355774A1 (Regeneron, published 2017)

T1: hGITR.mmh (human)
T1 construct: soluble monomeric construct; also called human (h) GITR.mmh; monomeric human GITR
T1 chain: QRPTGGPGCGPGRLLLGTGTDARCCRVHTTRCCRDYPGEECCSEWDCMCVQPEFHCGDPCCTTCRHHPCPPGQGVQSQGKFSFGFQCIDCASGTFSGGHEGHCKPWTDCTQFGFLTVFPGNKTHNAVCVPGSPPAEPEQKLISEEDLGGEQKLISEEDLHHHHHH

T2: hGITR.mFc (human)
T2 construct: soluble dimeric construct with mouse Fc; also called dimeric human GITR
T2 chain: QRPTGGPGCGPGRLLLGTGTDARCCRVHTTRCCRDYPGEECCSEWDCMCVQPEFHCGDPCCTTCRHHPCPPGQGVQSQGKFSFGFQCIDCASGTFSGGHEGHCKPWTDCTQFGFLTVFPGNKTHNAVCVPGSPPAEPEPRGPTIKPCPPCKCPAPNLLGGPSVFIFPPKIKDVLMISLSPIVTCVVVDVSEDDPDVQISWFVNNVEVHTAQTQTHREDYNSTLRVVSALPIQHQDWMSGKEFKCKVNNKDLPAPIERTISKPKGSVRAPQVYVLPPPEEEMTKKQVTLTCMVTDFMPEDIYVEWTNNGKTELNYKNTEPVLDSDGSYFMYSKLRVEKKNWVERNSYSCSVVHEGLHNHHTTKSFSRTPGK

T3: mfGITR.mmh (Macaca fasicularis)
T3 construct: soluble monomeric construct; also called Macaca fasicularis (mf) GITR.mmh; cynomolgus GITR protein
T3 chain: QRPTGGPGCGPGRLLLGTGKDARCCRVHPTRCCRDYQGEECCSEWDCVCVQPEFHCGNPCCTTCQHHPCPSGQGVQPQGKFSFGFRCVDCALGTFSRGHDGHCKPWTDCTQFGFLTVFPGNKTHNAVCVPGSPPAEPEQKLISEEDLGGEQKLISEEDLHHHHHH

T4: human GITR (amino acids M1-V241, NCBI Accession #NP_004186.1) expressed on cells (human, UniProt Q9Y5U5 26-241)
T4 sequence: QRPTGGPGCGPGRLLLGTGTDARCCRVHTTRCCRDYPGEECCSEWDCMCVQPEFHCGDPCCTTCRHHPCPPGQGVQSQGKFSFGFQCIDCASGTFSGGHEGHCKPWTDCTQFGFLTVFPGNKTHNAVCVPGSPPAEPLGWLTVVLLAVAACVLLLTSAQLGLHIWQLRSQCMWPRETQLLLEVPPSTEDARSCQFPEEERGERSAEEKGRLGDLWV

B1: H4H14528P (antibody, human IgG4, V domains shown)
VH: QVQLVESGGGVVQPGRSLRISCAASGFTFNNYGFHWVRQAPGRGLEWVAVIWYSGSNKYYGDSVKGRFTISRDNSKNILYLQMNSLRAEDTAIYYCARFPFSSSWLLDYWGQGTLVTVSS
VL: DIQLTQSPSFLSASVGDRVTFTCWASQGISDYLAWYQQKPGKAPKLLIYAASALQSGVPSRFSGSGSGTEFTLTVSSLQPEDFATYYCQQLNSYPFTFGPGTKVDIK
notes: human IgG4 (H4H)
B2: H4H14532P2 (antibody, human IgG4, V domains shown)
VH: QVQLVESGGGVVQPGRSLRLSCSASGFTLSNFVMHWVRQAPGKGLEWVAVILYDGSNKYYADSVKGRFTISRDNSNNRLYLQMNSLRAEDTALYYCARGESLGSPIYYYYGLDVWGQGTTVTVSS
VL: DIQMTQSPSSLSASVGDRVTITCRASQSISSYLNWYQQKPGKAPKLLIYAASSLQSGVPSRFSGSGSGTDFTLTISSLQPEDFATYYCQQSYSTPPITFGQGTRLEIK
notes: human IgG4 (H4H)
B3: H4H14539P2 (antibody, human IgG4, V domains shown)
VH: QVQLVESGGGVVQPGRSLRLSCAASGFSFSSYGMHWVRQAPGKGLEWMAVIWYAGSNKFYADSVKGRFTISRDNSKNTLYLQMNSLTAEDTAVYYCARGSSLAAPDLYKYGMDVWGQGTTVTVSS
VL: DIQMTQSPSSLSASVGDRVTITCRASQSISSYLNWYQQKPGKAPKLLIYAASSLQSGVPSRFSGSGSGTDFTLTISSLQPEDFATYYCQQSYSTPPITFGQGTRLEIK
notes: human IgG4 (H4H)
B4: H4H14470P (antibody, human IgG4, V domains shown)
VH: QVQLVESGGGVVQPGRSLRLSCAASGFTVRNYGMHWVRQAPGKGLEWVAVIWYDGSNKYYADSVKGRFTISRDNSKNTLFLQMNSLRAEDTAVYYCARGGELVRGDYYYGMDVWGQGTTVTVSS
VL: DIQMTQSPSSLSASVGDRVTITCRASQGIRNDLGWYQQKPGKAPKRLIYGASSLQSGVPSRFSGSGSGTEFTLTISSLQPEDFATYYCLQHNSYPYTFGQGTKLEIK
notes: human IgG4 (H4H)

Molecular target: T1, hGITR.mmh
Assay: SPR 37C, mAb capture

| Kd | koff | kon | t½ | Binder |
| --- | --- | --- | --- | --- |
| 51.3 nM | 0.00523 s⁻¹ | 102000 M⁻¹ s⁻¹ | 2.2 min | B1 |
| 18.5 nM | 0.00645 s⁻¹ | 348000 M⁻¹ s⁻¹ | 1.8 min | B2 |
| 82.5 nM | 0.0177 s⁻¹ | 214000 M⁻¹ s⁻¹ | 0.7 min | B3 |
| 64.7 nM | 0.0143 s⁻¹ | 221000 M⁻¹ s⁻¹ | 0.8 min | B4 |

Molecular target: T2, hGITR.mFc
Assay: SPR 37C, mAb capture

| Kd | koff | kon | t½ | Binder |
| --- | --- | --- | --- | --- |
| 1.12 nM | 0.00177 s⁻¹ | 1.58e+06 M⁻¹ s⁻¹ | 6.5 min | B1 |
| 0.373 nM | 0.000269 s⁻¹ | 720000 M⁻¹ s⁻¹ | 42.9 min | B2 |
| 0.554 nM | 0.000472 s⁻¹ | 853000 M⁻¹ s⁻¹ | 24.5 min | B3 |
| 1.15 nM | 0.00104 s⁻¹ | 904000 M⁻¹ s⁻¹ | 11.1 min | B4 |

Molecular target: T3, mfGITR.mmh
Assay: SPR 37C, mAb capture

| binding result | Kd | koff | kon | t½ | Binder |
| --- | --- | --- | --- | --- | --- |
| no binding | – | – | – | – | B1 |
| – | 24.9 nM | 0.00648 s⁻¹ | 260000 M⁻¹ s⁻¹ | 1.8 min | B2 |
| – | 22.8 nM | 0.00165 s⁻¹ | 72300 M⁻¹ s⁻¹ | 7 min | B3 |
| no binding | – | – | – | – | B4 |

These binders were tested against T4, human GITR (amino acids M1-V241, NCBI …) (assay: cell-based or functional assay).

| % Activation, NF-kB-Luc, non-anchored | % Blocking, NF-kB-Luc, non-anchored | EC50, hGITR activation, NF-kB-Luc, non-anchored | IC50, blocking of hGITRL stimulation, NF-kB-Luc, non-anchored | Binder |
| --- | --- | --- | --- | --- |
| 30% | 90% | 1.1 nM | 3.4 nM | B1 |
| 30% | 90% | 1.2 nM | 1 nM | B2 |
| 20% | 30% | 1.3 nM | 1.2 nM | B3 |
| 20% | 80% | 1.2 nM | 0.9 nM | B4 |

Molecular target: T4, human GITR (amino acids M1-V241, NCBI …)
Assay: cell-based or functional assay
Remark: another data set of the same source

| fold activation, T-cell proliferation, plate-bound Ab 10.6 nM, donor 1 | fold activation, T-cell proliferation, plate-bound Ab 10.6 nM, donor 2 | fold activation, T-cell proliferation, plate-bound Ab 10.6 nM, donor 3 | fold activation, T-cell proliferation, plate-bound Ab 10.6 nM, donor 4 | fold activation, T-cell proliferation, plate-bound Ab 10.6 nM, donor 5 | fold activation, T-cell proliferation, plate-bound Ab 10.6 nM, donor 6 | fold activation, T-cell proliferation, plate-bound Ab 10.6 nM, donor 7 | fold activation, T-cell proliferation, plate-bound Ab 10.6 nM, donor 8 | fold activation, T-cell proliferation, plate-bound Ab 10.6 nM, mean | Binder |
| --- | --- | --- | --- | --- | --- | --- | --- | --- | --- |
| 2 fold | 8 fold | 8 fold | 4 fold | 8 fold | 31 fold | 5 fold | 4 fold | 8 fold | B1 |
| 2 fold | 6 fold | 6 fold | 12 fold | 6 fold | 19 fold | 7 fold | 2 fold | 8 fold | B2 |
| 2 fold | 12 fold | 12 fold | 13 fold | 12 fold | 39 fold | 11 fold | 6 fold | 13 fold | B3 |
| 0 fold | 3 fold | 3 fold | 4 fold | 3 fold | 6 fold | 4 fold | 1 fold | 3 fold | B4 |

Molecular target: T4, human GITR (amino acids M1-V241, NCBI …)
Assay: cell-based or functional assay
Remark: another data set of the same source

| fold activation, T-cell proliferation, 33 nM, FcgR anchored, donor 1 | fold activation, T-cell proliferation, 33 nM, FcgR anchored, donor 2 | fold activation, T-cell proliferation, 33 nM, FcgR anchored, donor 3 | fold activation, T-cell proliferation, 33 nM, FcgR anchored, donor 4 | fold activation, T-cell proliferation, 33 nM, FcgR anchored, donor 5 | fold activation, T-cell proliferation, 33 nM, FcgR anchored, mean | Binder |
| --- | --- | --- | --- | --- | --- | --- |
| 0.9 fold | 1.5 fold | 1.1 fold | 1.9 fold | 1.7 fold | 1.4 fold | B1 |
| 0.8 fold | 0.9 fold | 1 fold | 1.7 fold | 2.1 fold | 1.3 fold | B2 |
| 0.9 fold | 0.7 fold | 1.1 fold | 1.5 fold | 1.5 fold | 1.1 fold | B3 |
| 1.8 fold | 1 fold | 1.4 fold | 1.5 fold | 2 fold | 1.5 fold | B4 |

Molecular target: T4, human GITR (amino acids M1-V241, NCBI …)
Assay: cell-based or functional assay
Remark: another data set of the same source

| fold activation, T-cell proliferation, 22 nM, non-anchored, donor 1 | fold activation, T-cell proliferation, 22 nM, non-anchored, donor 2 | fold activation, T-cell proliferation, 22 nM, non-anchored, donor 3 | fold activation, T-cell proliferation, 22 nM, non-anchored, donor 4 | fold activation, T-cell proliferation, 22 nM, non-anchored, mean | Binder |
| --- | --- | --- | --- | --- | --- |
| 0.6 fold | 0.8 fold | 0.9 fold | 1 fold | 0.8 fold | B1 |
| 0.7 fold | 0.8 fold | 1 fold | 1.1 fold | 0.9 fold | B2 |
| 0.5 fold | 0.8 fold | 1.1 fold | 0.8 fold | 0.8 fold | B3 |
| 0.7 fold | 0.9 fold | 1 fold | 1.7 fold | 1.1 fold | B4 |

The binders below were run against T4, human GITR (amino acids M1-V241, NCBI …) (assay: ECL cell binding, hGITR/HEK293-D9).
Procedure, shortened: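 Cells blocked with 2% BSA, then antibody dilutions from 1.7 pM to 100 nM added 1 h at RT. Bound antibody detected with SULFO-TAG anti-human kappa antibody, electrochemiluminescence read, RLU fitted by four-parameter logistic; signal at 100 nM on hGITR cells versus parental cells also recorded.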

| Average Signal (RLU) at 100 nM | EC50 | Binder |
| --- | --- | --- |
| 7310 RLU | 0.45 nM | B1 |
| 5740 RLU | 0.43 nM | B2 |
| 4910 RLU | 0.3 nM | B3 |
| 8390 RLU | 1.4 nM | B4 |
